These results are taken from patent US20240025992A1 (Janssen / Centocor, published 2024).

Read-outs that look alike come from different tables or passages of the source.

In experiment [1] the target is T1, human DLL3 on DLL3+ tumor cells (human, UniProt Q9NYJ7 27-618).
T1 sequence: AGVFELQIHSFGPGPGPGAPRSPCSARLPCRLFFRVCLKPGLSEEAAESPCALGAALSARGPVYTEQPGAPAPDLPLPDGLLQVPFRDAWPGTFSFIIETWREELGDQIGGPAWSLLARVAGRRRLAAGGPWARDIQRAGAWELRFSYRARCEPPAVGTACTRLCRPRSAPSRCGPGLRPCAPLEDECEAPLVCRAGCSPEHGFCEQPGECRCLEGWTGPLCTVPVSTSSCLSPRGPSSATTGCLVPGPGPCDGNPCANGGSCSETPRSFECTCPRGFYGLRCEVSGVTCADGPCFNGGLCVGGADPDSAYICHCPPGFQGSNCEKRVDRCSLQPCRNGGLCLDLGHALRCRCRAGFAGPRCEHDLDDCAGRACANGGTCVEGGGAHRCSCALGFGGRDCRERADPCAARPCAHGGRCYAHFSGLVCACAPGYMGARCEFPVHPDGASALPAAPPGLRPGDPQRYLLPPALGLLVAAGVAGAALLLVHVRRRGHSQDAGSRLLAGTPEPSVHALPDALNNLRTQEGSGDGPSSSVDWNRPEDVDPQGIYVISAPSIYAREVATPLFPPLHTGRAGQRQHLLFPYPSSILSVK
Description: cell-based or functional assay.

The target in experiment [2] is T2, recombinant human DLL3 (Example 9, construct not named) (human, UniProt Q9NYJ7 27-492, limits assumed).
T2 construct: also called DLL3 antigen
T2 sequence: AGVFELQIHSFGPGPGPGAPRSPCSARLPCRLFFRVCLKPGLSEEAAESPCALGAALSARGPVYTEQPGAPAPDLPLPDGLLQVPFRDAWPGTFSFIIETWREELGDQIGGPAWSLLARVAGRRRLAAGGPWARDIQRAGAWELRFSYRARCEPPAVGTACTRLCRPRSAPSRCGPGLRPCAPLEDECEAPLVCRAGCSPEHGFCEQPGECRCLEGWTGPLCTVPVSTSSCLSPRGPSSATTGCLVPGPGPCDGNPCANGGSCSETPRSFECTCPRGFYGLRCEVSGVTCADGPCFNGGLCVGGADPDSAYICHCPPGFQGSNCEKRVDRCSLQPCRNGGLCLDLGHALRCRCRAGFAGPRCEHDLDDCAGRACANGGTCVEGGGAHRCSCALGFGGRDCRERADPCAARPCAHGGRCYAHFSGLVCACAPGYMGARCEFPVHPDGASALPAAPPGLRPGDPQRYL
Description: SPR (Biacore T200), antibody captured by goat anti-Fc on a C1 chip, DLL3 titrated.

Experiment [3] addresses T2, recombinant human DLL3 (Example 9, …). The experiment is described as above. This is another data set of the same source.
Experiment [4] has as its target T3, human CD3 (CD3 epsilon as part of the T cell receptor complex) on cells (human, UniProt P07766 23-207).
T3 construct: also called CD3 on Jurkat cells; CD3 on human pan T cells
Description: flow cytometry on human T cells (sheet title 'T cells', GEO Mean against concentration; assay as told in p-1138). A general note: Flow cytometry measures light scatter and fluorescence of single cells or particles in a stream.

Experiment [5] deals with T3, human CD3 (CD3 epsilon as part of the T …). The experiment can be described thus: flow cytometry on human pan T cells, antibody titrated 3-fold from 100 nM, AlexaFluor 647 anti-human secondary antibody, GEO Mean.

T3 sequence (P07766 23-207 limits assumed, one chain of several): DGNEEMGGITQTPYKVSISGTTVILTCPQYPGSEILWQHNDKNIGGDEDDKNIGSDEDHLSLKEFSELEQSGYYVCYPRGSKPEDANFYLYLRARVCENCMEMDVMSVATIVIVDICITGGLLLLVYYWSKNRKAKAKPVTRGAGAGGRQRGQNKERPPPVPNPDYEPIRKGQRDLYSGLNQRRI

B1: DL3B585 (bispecific antibody, human IgG1, lambda, L234A L235A)
scFv: DIQMTQSPSSLSASVGDRVTITCRASQGISNYLAWFQQKPGKAPKSLIYAASSLQSGVPSKFSGSGSGTDFTLTISSLQPEDFATYYCQQYNSYPYTFAQGTKLEIKGGSEGKSSGSGSESKSTGGSQVQLVQSGAEVKKPGASVKVSCKASGNTFTNYYIHWVRQAPGQGLEWMGIINPSGGSTSYAQKLQGRMTMTRDTSTSTVYMELSSLRSEDTAVYFCARQGPFIGDAFDIWGQGTMVTVSSEPKSSDKTHTCPPCPAPEAAGGPSVFLFPPKPKDTLMISRTPEVTCVVVSVSHEDPEVKFNWYVDGVEVHNAKTKPREEQYNSTYRVVSVLTVLHQDWLNGKEYKCKVSNKALPAPIEKTISKAKGQPREPQVYVLPPSREEMTKNQVSLLCLVKGFYPSDIAVEWESNGQPENNYLTWPPVLDSDGSFFLYSKLTVDKSRWQQGNVFSCSVMHEALHNHYTQKSLSLS
heavy: QVQLQQSGPRLVRPSQTLSLTCAISGDSVFNNNAAWSWIRQSPSRGLEWLGRTYYRSKWLYDYAVSVKSRITVNPDTSRNQFTLQLNSVTPEDTALYYCARGYSSSFDYWGQGTLVTVSSASTKGPSVFPLAPSSKSTSGGTAALGCLVKDYFPEPVTVSWNSGALTSGVHTFPAVLQSSGLYSLSSVVTVPSSSLGTQTYICNVNHKPSNTKVDKKVEPKSCDKTHTCPPCPAPEAAGGPSVFLFPPKPKDTLMISRTPEVTCVVVSVSHEDPEVKFNWYVDGVEVHNAKTKPREEQYNSTYRVVSVLTVLHQDWLNGKEYKCKVSNKALPAPIEKTISKAKGQPREPQVYVYPPSREEMTKNQVSLTCLVKGFYPSDIAVEWESNGQPENNYKTTPPVLDSDGSFALVSKLTVDKSRWQQGNVFSCSVMHEALHNHYTQKSLSLSPG
light: QSALTQPASVSGSPGQSITISCTGTSSNIGTYKFVSWYQQHPDKAPKVLLYEVSKRPSGVSSRFSGSKSGNTASLTISGLQAEDQADYHCVSYAGSGTLLFGGGTKLTVLGQPKAAPSVTLFPPSSEELQANKATLVCLISDFYPGAVTVAWKADSSPVKAGVETTTPSKQSNNKYAASSYLSLTPEQWKSHRSYSCQVTHEGSTVEKTVAPTECS
notes: DLL3 arm: DL3B279-LH-scFv-Fc; CD3 arm: CD3B376-Fab-Fc; also called CD3B376-Fab; DL3B279-LH-scFv
For orientation: Kd means the free concentration of one partner at which half of the binding sites on the other are occupied at equilibrium, for simple one-to-one binding. Turning to B1, the “Cytotoxicity (% Lysis), SHP-77, whole PBMCs, 1:1 ET ratio, 30 nM” value in experiment [1] is 58.1%. The Kd in experiment [2] and in experiment [3] was 0.024 nM each time.

B2: D3C3B80 (bispecific antibody, human IgG1, lambda, L234A L235A)
scFv: DIQMTQSPSSLSASVGDRVTITCRASQGISNYLAWFQQKPGKAPKSLIYAASSLQSGVPSKFSGSGSGTDFTLTISSLQPEDFATYYCQQYNSYPYTFGQGTKLEIKGGSEGKSSGSGSESKSTGGSQVQLVQSGAEVKKPGASVKVSCKASGQTFTNYYIHWVRQAPGQGLEWMGIINPSGGSTSYAQKLQGRMTMTRDTSTSTVYMELSSLRSEDTAVYFCARQGPFIGDAFDIWGQGTTVTVSSEPKSSDKTHTCPPCPAPEAAGGPSVFLFPPKPKDTLMISRTPEVTCVVVSVSHEDPEVKFNWYVDGVEVHNAKTKPREEQYNSTYRVVSVLTVLHQDWLNGKEYKCKVSNKALPAPIEKTISKAKGQPREPQVYVLPPSREEMTKNQVSLLCLVKGFYPSDIAVEWESNGQPENNYLTWPPVLDSDGSFFLYSKLTVDKSRWQQGNVFSCSVMHEALHNHYTQKSLSLSPGK
heavy: QVQLQQSGPRLVRPSQTLSLTCAISGDSVFNNNAAWSWIRQSPSRGLEWLGRTYYRSKWLYDYAVSVKSRITVNPDTSRNQFTLQLNSVTPEDTALYYCARGYSSSFDYWGQGTLVTVSSASTKGPSVFPLAPSSKSTSGGTAALGCLVKDYFPEPVTVSWNSGALTSGVHTFPAVLQSSGLYSLSSVVTVPSSSLGTQTYICNVNHKPSNTKVDKKVEPKSCDKTHTCPPCPAPEAAGGPSVFLFPPKPKDTLMISRTPEVTCVVVSVSHEDPEVKFNWYVDGVEVHNAKTKPREEQYNSTYRVVSVLTVLHQDWLNGKEYKCKVSNKALPAPIEKTISKAKGQPREPQVYVYPPSREEMTKNQVSLTCLVKGFYPSDIAVEWESNGQPENNYKTTPPVLDSDGSFALVSKLTVDKSRWQQGNVFSCSVMHEALHNHYTQKSLSLSPGK
light: QSALTQPASVSGSPGQSITISCTGTSSNIGTYKFVSWYQQHPDKAPKVLLYEVSKRPSGVSSRFSGSKSGNTASLTISGLQAEDQADYHCVSYAGSGTLLFGGGTKLTVLGQPKAAPSVTLFPPSSEELQANKATLVCLISDFYPGAVTVAWKADSSPVKAGVETTTPSKQSNNKYAASSYLSLTPEQWKSHRSYSCQVTHEGSTVEKTVAPTECS
notes: DLL3 arm: DL3B279 variant LH-scFv-Fc (ZW); CD3 arm: CD3B376-K477-Fab-Fc; also called CD3B376-Fab
On to B2, for which, in experiment [3], the Kd amounted to 0.033 nM. Also, the binding result in experiment [4] is recorded as “binds”.

B3: DL3B587 (bispecific antibody, human IgG1, kappa, L234A L235A)
scFv: DIQMTQSPSSLSASVGDRVTITCRASQGISNYLAWFQQKPGKAPKSLIYAASSLQSGVPSKFSGSGSGTDFTLTISSLQPEDFATYYCQQYNSYPYTFAQGTKLEIKGGSEGKSSGSGSESKSTGGSQVQLVQSGAEVKKPGASVKVSCKASGNTFTNYYIHWVRQAPGQGLEWMGIINPSGGSTSYAQKLQGRMTMTRDTSTSTVYMELSSLRSEDTAVYFCARQGPFIGDAFDIWGQGTMVTVSSEPKSSDKTHTCPPCPAPEAAGGPSVFLFPPKPKDTLMISRTPEVTCVVVSVSHEDPEVKFNWYVDGVEVHNAKTKPREEQYNSTYRVVSVLTVLHQDWLNGKEYKCKVSNKALPAPIEKTISKAKGQPREPQVYVLPPSREEMTKNQVSLLCLVKGFYPSDIAVEWESNGQPENNYLTWPPVLDSDGSFFLYSKLTVDKSRWQQGNVFSCSVMHEALHNHYTQKSLSLS
heavy: EVQLVESGGGLVKPGGSLRLSCAASGFTFSRYNMNWVRQAPGKGLEWVSSISTSSNYIYYADSVKGRFTFSRDNAKNSLDLQMSGLRAEDTAIYYCTRGWGPFDYWGQGTLVTVSSASTKGPSVFPLAPSSKSTSGGTAALGCLVKDYFPEPVTVSWNSGALTSGVHTFPAVLQSSGLYSLSSVVTVPSSSLGTQTYICNVNHKPSNTKVDKKVEPKSCDKTHTCPPCPAPEAAGGPSVFLFPPKPKDTLMISRTPEVTCVVVSVSHEDPEVKFNWYVDGVEVHNAKTKPREEQYNSTYRVVSVLTVLHQDWLNGKEYKCKVSNKALPAPIEKTISKAKGQPREPQVYVYPPSREEMTKNQVSLTCLVKGFYPSDIAVEWESNGQPENNYKTTPPVLDSDGSFALVSKLTVDKSRWQQGNVFSCSVMHEALHNHYTQKSLSLSPG
light: DIQMTQSPSSLSASVGDRVTITCRARQSIGTAIHWYQQKPGKAPKLLIKYASESISGVPSRFSGSGSGTDFTLTISSLQPEDFATYYCQQSGSWPYTFGQGTKLEIKRTVAAPSVFIFPPSDEQLKSGTASVVCLLNNFYPREAKVQWKVDNALQSGNSQESVTEQDSKDSTYSLSSTLTLSKADYEKHKVYACEVTHQGLSSPVTKSFNRGEC
notes: DLL3 arm: DL3B279-LH-scFv-Fc; CD3 arm: CD3W245-Fab-Fc; also called CD3W245-Fab; DL3B279-LH-scFv
As to B3, the “Cytotoxicity (% Lysis), SHP-77, whole PBMCs, 1:1 ET ratio, 30 nM” value in experiment [1] stood at 83.3%. Moreover, in experiment [2], the Kd was 0.031 nM. Moreover, in experiment [5], the binding result was “binds”.
